Data as given in the supplement of paper PMC12636428.

Tested on: Saccharomyces cerevisiae
Experiment: transcriptional activation domain activity (GFP:mCherry ratio, weighted mean of sorted bins, harmonized to initial dataset scale) (arbitrary fluorescence ratio units); higher = stronger transcriptional activation
Conditions: beta-estradiol 1 µM; induction time 4 h
In short: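 Barcoded tiles were sequenced after cells were sorted into 8 bins by GFP:mCherry ratio. Before sorting, cultures had been diluted 1:5 into SC with 1 uM beta-estradiol and held for 4 hours at 30 °C. The tiles were fused to an estradiol-inducible synthetic transcription factor and integrated at URA3 in yeast diploids carrying a GFP reporter. Activation activity is the read-weighted mean of bin median fluorescence, averaged over barcodes and linearly mapped onto the initial dataset scale, and tiles under 50 reads were left out.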

## PYIAYPLKPCLSGPLCELYPSTSNLWAMCLHLILVCIQVPFLLSTPFWLLLPL
  transcriptional activation domain activity: 74200

## FVVLLYQSIFVLSLWLLPVFFKSHIKSLSYKSQVDTSIHVVSMFQCLLILYLI
  transcriptional activation domain activity: 50200

## GGKAKGRKGKEKEKEKEVADKPAARKCAAPKAAPKKATVKKAAKKVKETGKGS
  transcriptional activation domain activity: 28700

## SASSSAPRKPVSISIGGGGGGAAAAAAAPPADKKPVSISIGGSSAKAAAPAAA
  transcriptional activation domain activity: 38800

## EKAKPAEEPKPAAEPAPAEEKAAEPETQPESKPAEELSSPTEEPAPIEEAKPA
  transcriptional activation domain activity: 15800

## MAMGYMRFCALAISILLFREGKELTQRGSCGCLIYVCVRLEVGYYRLVFLIGY
  transcriptional activation domain activity: 54700

## SRKGESGREDSGGRDKESRKRSRRDKTPVADERRRDGTRAAEERDRKRRGDHR
  transcriptional activation domain activity: 49100

## MVPLRSFPILYALCKVLLFITILLLLIVFVCLGLQHCLLFVGCWLCVQIWCGG
  transcriptional activation domain activity: 23300

## MRLFYSSFLLFSFLPFLPLLWFFNYLIAIVFPFFFFFFLSFVMGLISFRFLLF
  transcriptional activation domain activity: 40200

## EAEDDEEDADAAGGKKPKAKKRKRESTVKESAEEKKGKRKRASEQLAKQRRGK
  transcriptional activation domain activity: 22600

## MPLMIIFRFTIFYFYFVSIFFFLFLLLVGEFFFLLSFFFFLSFVFFLFTISYF
  transcriptional activation domain activity: 37100

## MSLSEWLRMIWVCFGRSTSCTIVRFSFHMRLIHVLIVVVLGTVRRHWLWSFVY
  transcriptional activation domain activity: 35500

## NIFMLVFWSLALIYWSMFVIIPSIFNYFSPYHYSRWKVVLVNVGTFVWNLATC
  transcriptional activation domain activity: 61300

## EVSFVALLLVWTYMRHYLNCKILYSVWTEFDLIPHHFRSWVHEPGYPHDIRGW
  transcriptional activation domain activity: 45000

## KAEPKKEAAKGPRNVSGVTVDDKKEGKGKAAKKGDRVEMRYIGKLKSGKVFDS
  transcriptional activation domain activity: 36900

## ASEAAVKEESASPAAKKSKKDKKPAKGSSDSVEAPVAEATPKTKKTAKANGAV
  transcriptional activation domain activity: 28000

## MIELCLWVFSLLVLPRFGLRNFEVRINVALRELLLTITWGRLAIHVSLLRLVV
  transcriptional activation domain activity: 49000

## KLEYVSLGRIEIVACFDKYTMASKGIHMLLGCCFSKIKFVCLSQADYQAAVLL
  transcriptional activation domain activity: 67100

## SVASEKGADDSAEEDHEHEHRHKKRRHREHREREHRSSRHKHRSSRRHAEEVD
  transcriptional activation domain activity: 21000

## SCCMLQVISGIAMGNSCLARMNFWPVIASNFPWLLIVIINYTMFFNWMLSYFL
  transcriptional activation domain activity: 62400

## AAAPAPEPAPKKGRPGRKPAAKSEPEAVEEKTEDAPKKRGRRSTLIPEPVEET
  transcriptional activation domain activity: < 6570

## MSIFFSVIPPFFSFLPLMLFFFFFLGCLGNGSTFFVSTLLWMGGSIGLLSFYS
  transcriptional activation domain activity: 55600

## MRFPPLLFSFFLFFLFFFHLFLFLFHNLFFFYQSFFSSQPLFSFSLSFLSSSL
  transcriptional activation domain activity: 42800

## MFFLFPFLTFGYPAFNLKLCLLIQSNSYCHSFSSLSLYALLLLYLRLLLILLI
  transcriptional activation domain activity: 71100

## RLNFLLFCLSLFLSLYFFPFCLLFFLFSLSSFLFCLPSFLSLLSSFFFFFVSL
  transcriptional activation domain activity: 57200

## GKSKEERERDEEVIRKWSGKPTKVMLQVFDDCSLSFTRPAKLMYRSIAHFSLW
  transcriptional activation domain activity: 65100

## RAARARATPARPRPRASASRARGACRASTRGCRRRRSSSSSSRAGARMRATSA
  transcriptional activation domain activity: 58600

## YILYMLRMSVRELTRSELLIVRLGRPTKLIIAGNWEINLLGIFVGLGIVCTEV
  transcriptional activation domain activity: 59400

## EAQAEEEVAPAPKPRGRPRRAAAEAPAPEISKPTTRGRAKKVEAPAEDVIVVE
  transcriptional activation domain activity: 24100

## FYWIPIFRAVGKYKYSNLLNKFLLDLHLRYPKKLQNAIRSNWLCNPSGKKNKF
  transcriptional activation domain activity: 64100

## MYVWYSLSFLFPPTSPSLFLFLFYLFIYSLFYFFFYFSPYFFSFFLSSYTLHY
  transcriptional activation domain activity: 63000

## KDSDDESEDSDAKSKKRKKRKRVVESDEGSGSEAESKKRKKKRKAEDSDVSGS
  transcriptional activation domain activity: 22600

## HGTHCSGTVAGKKYGVAKKAHIKAVKVLRSNGSGSMSDVVKGVEFAAESHAGE
  transcriptional activation domain activity: 38600

## LCVFDLLVLTTTAFIQSGVYCAFDWTVSTIEVRGVCVLAVLIATIPIVFIAYA
  transcriptional activation domain activity: 31400

## MISFFCDIPVFSLLVPFLPLSFMFPMSPMFYYFFIYAVGCSIFLSLLFFSYVI
  transcriptional activation domain activity: 28100

## MGFLFLLCVLVVWVFFRAWFFCFLFFLFLFLVLLFRYLFIYFLWSWYGGGSVG
  transcriptional activation domain activity: 48000

## AKAEAKTTKTAKKPTLEKKATTSKATTAKKPAAKPATKAKETKAAKEPKAKAA
  transcriptional activation domain activity: 40800

## MADACGSNPGGKSVKDVRAEQESKRARGALSCAECRRLKLRCDKRVPCSSCQR
  transcriptional activation domain activity: 25400

## CASPIFRLKYLYKIPSGIAAMAHIFSVVNHFTFFELMWLMERWNFRRALLGLM
  transcriptional activation domain activity: 62900

## TLHHKHVVLWNTSRQVATEVIRLPFSCSGKMLCLLLLPEAEDGLKRVHVVALS
  transcriptional activation domain activity: 25600

## MCVLHHLSHTLCFALFCYVIEAFRFTSYLLLLPFWRFYVLVVIPLFIHISYVF
  transcriptional activation domain activity: 52500

## DSGKQGFLFLVCLVFFVFFWGFACDLWLGLLLLFFFFPFLSFPLFSLPHYHGH
  transcriptional activation domain activity: 43900

## NMMLYLLKGLPALSMSDPASITRFIKLVDELLYYAYEAERRSPLPTSHPNLVR
  transcriptional activation domain activity: 65700

## RSLGIVFYFGLLLSFYFEFFFSSIFSFVIIIWLYPIGFLYICLSAAIPFPLLN
  transcriptional activation domain activity: 65000

## VMFHGKQMKNFLIDINSFTNQQQQAQDNPSFLPLDIEQSSYDLSEDAMSYPII
  transcriptional activation domain activity: 115000

## RSKVLRPFWLFLLALCYNLVHATALFYQVITLNVAVNSYSNALLTLLMSNQFV
  transcriptional activation domain activity: 53500

## MYHISIQLLSVFISPSTPLFPDFLQISISFHLYSFFLFAIVIFFYFICLFLFV
  transcriptional activation domain activity: 61100

## DGDLDEAVYKGFEYKHLGNLAYIGNAAVFDLNGWSIGGGLIFVYLWRSVYFAQ
  transcriptional activation domain activity: 67800

## LVTVRTMYRSYVEHGSGIGLTFARLITKDGLVLAISDFVLVFSTFLCVPFVKL
  transcriptional activation domain activity: 44300

## MDTTDASRGRSKACTYCNKSKTKCMWAGEPGAGACQRCTRLRRSCILPEKGER
  transcriptional activation domain activity: 10200

## ELYGKPSMEAIFLLFAHYLYAGACAKGEHLIITTWDMYYEKLGFMLIFWNMAG
  transcriptional activation domain activity: 64300

## LLLLLLYFFLFLFLFLFLCSQVLCLGQVDLVDLEKPFVFQSFFEIFPTLLFLP
  transcriptional activation domain activity: 35100

## EDEETARPKRKSPSAVLKSHTARVSRAVFGRDAKGASAYSCGFDSTVRTWDVE
  transcriptional activation domain activity: 49700

## SFTRRLILWNVCALGIIIVLASRRLLRCILLRKKKFDDTMEFSMLSLIFDLCV
  transcriptional activation domain activity: 71800

## RNSSLEEEDQVVAEGEVVGAAEEEGGEGEGREEVVVTEGREDMAVVGMAGMAD
  transcriptional activation domain activity: 35400

## MYILFFFNIYYLYSILHLFCFRFFFISLFSFSFSLLSLLTYFLQYYIIIYLKI
  transcriptional activation domain activity: 58200

## IFFSQFGRYWIVFPGILFLTSVALSLILIVMLCIPGINLWTTISINLAIPYWA
  transcriptional activation domain activity: 27300

## RPSLGCILFILIRYVSIIVMVVSNYGVLSTSFTEKVCERYFMIAPVFKVIQTM
  transcriptional activation domain activity: 50600

## LIFSLKVLVMLICIIMIEFYITYAVAVGYIYAVAILEPFRPQLAVAFTWIRPV
  transcriptional activation domain activity: 66600

## MTVSLQLYSHTLQLVLCCACAPPLLKFLLFCFFFFFWFFFFFWFCFWFFLLMF
  transcriptional activation domain activity: 38000

## GKRAREESDEENDEEEEAEGEGAEKEGEEEEEEEEVKKPAAKRARTAKGAAAK
  transcriptional activation domain activity: 13500

## KPHHKWIIPTPFASHAFHPVDGYLQSVPYHLFIFLFPMHQYVYLGLFVAVNFW
  transcriptional activation domain activity: 72400

## EMGLSTAPGHQTAEFTITGIGLILKTLWLCADLITFLLSLQRLIFHALVLLFS
  transcriptional activation domain activity: 64300

## TGGISELQNALDDTRASFAYVRLQYANDKESKREKFILVIWIGKSVKVMRKAK
  transcriptional activation domain activity: 40200

## KNNLWYLPLYLFYLSRVTPAATVVPVFLFFFIFFYFFIFIFYLFLFYLSFSIF
  transcriptional activation domain activity: 49900

## EHPARARVDKNRTKTSAREVHPARAAREEHPARAYADKNRTKTSARDVHPAGA
  transcriptional activation domain activity: 40400

## MYSFRLISLMLLSAIALVAANPLMIRIWPLRGGSLTFNLLLLFRWLDFQFVSH
  transcriptional activation domain activity: 59900

## KFKTFPLFLPRINFHSIPSFNILLSSFPNSIFLNVLFRISLYYIWAYFLWCAL
  transcriptional activation domain activity: 52000

## SKWEVANKKTRDEASKGGGGKGGGGGKGGKAGEGGKEKRSEKKAAAKEGGKKK
  transcriptional activation domain activity: 39600

## MPVLPYFFAKFIIDIPRIVIGGSMFSLALVVFFPYQQPFVRMYGMVIILYFYS
  transcriptional activation domain activity: 51200

## GPLLFVEIRAGFFPLYYPFSFLCLSGFVFELGHYPSGSFVPGVLLSWSLNFII
  transcriptional activation domain activity: 53700

## GGGGGGGGSYGAFGGGGKTCYTCGGVGHLSRDCVQGSKCYNCSGIVRDVILVE
  transcriptional activation domain activity: 67800

## ERLPVDLAVVCTIVERLFGLAVMTARLRKLGSLHGVLLPRTWVLALWRDFIRF
  transcriptional activation domain activity: 67500

## VLGCAKIGVVLLSLWHMFHFAHYINVSPTEIFCISPVLGSWSWETLCFMMTVV
  transcriptional activation domain activity: 49600

## AAAPAAAANDGTTKKKGKGQKATRSPKGKGKSKKKGKGAAAAAAAPAAAKAVS
  transcriptional activation domain activity: 14600

## LSILSSLSFSFLSSLSLSFFTLIPFLPLLLFLYSLYSHLFLLLSFILFPHPSL
  transcriptional activation domain activity: 65400

## LCNVLRLYFYLLYFIFYRNLFARLRDVEQFAMIQIASSVWVTILYPMRMTRPV
  transcriptional activation domain activity: 72900

## MPFFSDFLFLFLFFFLEFFFFFFLPGFRLGYSSLFSSLLFFFFGFPIPPPHLS
  transcriptional activation domain activity: 46200

## LSSLPPSAPPFPPPSPLPPPLCFPLPPLFPPFLPSLSFPLSPPPSHFPFPLIP
  transcriptional activation domain activity: 27100

## IHISPFLSFLLFNTFLFFFDILLEYDQSGKSSCSVLWGIGWGCWWILFIGSLQ
  transcriptional activation domain activity: 38800

## SKHATEAEKKKEEEKKSKSKEAPAKKEKKEKVKEEKPKEKVVAKIPEPAPSEP
  transcriptional activation domain activity: 20200

## SAAAAAGTGAAAAATAGGKTGETQAAGAKKLKLSEEGKGKEKAAAAAAAEDQK
  transcriptional activation domain activity: 22100

## HSALSRSEVSGTGRKAYAQKGRGKARVGSLRAPHFRGGGRAFPVKPRDHSTKL
  transcriptional activation domain activity: 17000
